Test results taken from the supplement of paper PMC9170038.

System: MS2 coat protein
Assay: apparent KD of MS2 coat protein; designed switch direction (-1 OFF switch, 1 ON switch): -1; higher = weaker reporter binding
In short: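 RNA switches sharing common flanks were transcribed by stalled E. coli RNA polymerase on Illumina chips. A doubling series of SNAP-549-labelled MS2 coat protein, from 0.7 or 1.5 nM to 3 µM, was applied in Tris-HCl pH 7.5 buffer with KCl, MgCl2, BSA, DTT, tRNA and Tween-20. Each step lasted 0.8–1.5 h at the bottom of the series and 10–20 min at the top. Normalised cluster fluorescence was curve-fitted, giving apparent KD as the per-design median over clusters.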

[1] = Eterna round: R95, input ligand: FMN 200 uM
[2] = Eterna round: R95, input ligand: microRNA oligo, concentration not stated
[3] = Eterna round: R95, input ligand: none
[4] = input ligand: microRNA oligo, concentration not stated

Sequence | apparent KD of MS2 coat protein (input ligand: FMN 200 uM) [nM] | apparent KD of MS2 coat protein (input ligand: none) [nM] | apparent KD of MS2 coat protein [1] [nM] | apparent KD of MS2 coat protein [2] [nM] | apparent KD of MS2 coat protein [3] [nM] | apparent KD of MS2 coat protein [4] [nM]
AUUGUGUGAGGAUAUUAGUAGUAAAUAAAUAAAAUUAUUACUGAGAAGGCACAUGAGGAUCACCCAUGUUCCUU [Salish 062 v5] (Eterna round: R97, puzzle: Exclusion 4) | 131 | 18.9 |  |  |  | 
UCCUUACUUGAGGAUCACCCAAGUCAGGAUAUACACCAGAAUAAAUCCCAGCCCUGGCGUAGAAGGGACGGGUG [Esesle] (Eterna round: R97, puzzle: Exclusion 1) | 23 | 25.1 |  |  |  | 
AAAACUGCCCAUAACCGCAAGCUUUUUGCUUGUCUUACCACAUGAGGAUCACCCAUGUGACAUGGGCUCCUUAUAAA [Arixeerat] (puzzle: Sensor v3, turn-off variant 2) |  |  | 14.1 | 8.53 | 12 | 
CCGCAAAUGCAGGAUAUCGUAUCGGAUACGAUACGAGAAGGGCGUACAUGAGGAUCACCCAUGUGUCCUAGCGG [Fiskers Ex 6 - 42] (puzzle: Exclusion 6) |  |  |  | 16.6 |  | 
UUUUAACAUGAGGAUCACCCAUGUGAGGAUAUCGAAUUUUAUAUUAAUAUUAAUAAAACGAGAAGGCACAUUUU [JMF 8] (puzzle: Exclusion 1) |  |  | 60.8 | 49.6 | 49.6 | 
GUCAGCUCGUGAGGAUAUGAACAUGAGGAUCACCCAUGUAAGAUCAAGCUGCUUCGGCAGCAAGUUCAGAAGGCACGAGCUGAC [ENG2/10-A1] (Eterna round: R96, puzzle: Exclusion NG 2) | 221 | 134 |  |  |  | 85.8
GUUAGUUAAGGAUAUACAGGGAGCCGCGGCGUCUCGCCGCAACAUGAGGAUCACCCAUGUAGAAGGUAGCCAUU [JL ViennaUCT Enbibi mod 1] (puzzle: Exclusion 2) |  |  |  | 25.5 |  | 
ACAAGCGUUAAGGAUAUACUGCCCUCAUUCUCGGUAGAAGGUAACACUUGAGGAUCACCCAAGUGAAAACCUGA [Erxeesis] (Eterna round: R97, puzzle: Exclusion 6) | 10.6 | 9.67 |  |  |  | 
UAAGAUUACCGAGGAUAUGGUAGUUUCUAUUAACCAGAAGGCGGACUCAACAUGAGGAUCACCCAUGUAUAAAGGGUAUUAGAU [JR_ExcNG1_Sub041] (Eterna round: R96, puzzle: Exclusion NG 1) | 91.7 | 116 |  |  |  | 56.4
ACAUGUCAUUGAGGAUAUCGCACACAUGAGGAUCACCCAUGUAAACGGAUGCUCUUUCGUGGUUUCGAGAAGGCGAUGUACAUU [Ex NG2 #97] (Eterna round: R96, puzzle: Exclusion NG 2) | 438 | 182 |  |  |  | 335
CGAGGUAGAGGAUAUACGUGGAAAUAGAUUCAUGUUAAUCUACAUGAGGAUCACCCAUGUAGAAGGCUAUAGCG [JR_Ex2_Sub075] (Eterna round: R97, puzzle: Exclusion 2) | 80 | 24.9 |  |  |  | 
GGCCUGUGAGGAUAUUAGUAGUAGAUAAAAUAAACUAUUACUGAGAAGGCACAUGAGGAUCACCCAUGUUGGCC [Eli x4 4.05] (Eterna round: R97, puzzle: Exclusion 4) | 20.3 | 16.4 |  |  |  | 
CCCUGACAUGAGGAUCACCCAUGUUAGGAUAUAACAUUUGACACUACAGUGUGAAGUGUUAGAAGGGAUAUGGG [-27.9, -26.2 kcal, A 31%] (Eterna round: R97, puzzle: Exclusion 1) | 32.4 | 28.7 |  |  |  | 
AGUCGUAGACAGGAUAUGCGGCUAAUAAAUAAAGCAGAAGGGUCUACUUGAGGAUCACCCAAGUGGGCGGUUAA [jl-ex6-4.19 ViennaUCT mod] (Eterna round: R97, puzzle: Exclusion 6) | 104 | 20.8 |  |  |  | 
AAAUAACAAGCGAGAUCCUACAUGAGGAUCACCCAUGUGCUCGUCUUAAUAAGUACUAUCACGAAAGUGAUAGUACA [Mat - Sensor v3 - turn-off var 1 - Eli Mod - D67] (puzzle: Sensor v3, turn-off variant 1) |  |  | 16.6 | 471 | 16 | 
UUGACCCACGUCAGGAUAUCAAGAAAAGAGGCUCUUGAGAAGGGACAUGAGGAUCACCCAUGUAAGAAAUAAAU [Qumabibe] (puzzle: Brourd's mod of Exclusion 4) |  |  | 101 | 28.4 | 34.6 | 
AGAUGUAGAUACCGAUCCUACAUGAGGAUCACCCAUGUAGCUAGACGUGCUCGCGUGGCUCGUCAGACUACCAGUAG [salish99_TOv1_r3_091] (puzzle: Sensor v3, turn-off variant 1) |  |  | 243 | 211 | 281 | 

Sequence | apparent KD of MS2 coat protein (input ligand: FMN 200 uM) [nM] | apparent KD of MS2 coat protein (input ligand: none) [nM] | apparent KD of MS2 coat protein [1] [nM] | apparent KD of MS2 coat protein [2] [nM] | apparent KD of MS2 coat protein [3] [nM] | apparent KD of MS2 coat protein [4] [nM]
AGUAGUAGUAUCCGUUCUUACAUGAGGAUCACCCAUGUUUCUUGACGUGCACGCGAUGCUCGUCAGACUACCAGAUG [salish99_TOv1_r3_055] (puzzle: Sensor v3, turn-off variant 1) |  |  | 68.5 | 88.4 | 91.5 | 
AAAAGGCAGGGAGGAUAUGCUUGCCUGGGUCGUCUUCAAACAUGAGGAUCACCCAUGUAGUCGACGCAGAAGGCCCUCAAAGAA [Mat - Exclusion NG 2 - Mod of JL - D62] (Eterna round: R96, puzzle: Exclusion NG 2) | 37.7 | 57.2 |  |  |  | 40.8
UAUUCGCAAGUGAGAUCCCACAUGAGGAUCACCCAUGUGCUCGUCUUAUAAGGUACUGUGACGAAAGUCACGGUACC [Sensor 3, v1 - 91 v23] (Eterna round: R97, puzzle: Sensor, turn-off variant 1) | 32.4 | 36.1 |  |  |  | 
GGUCAUCAAGUCAGGAUAUCGUCUGAUCAAUCAGGCGAGAAGGGACAUGAGGAUCACCCAUGUCGACUCAUCAG [Ex4 #7] (Eterna round: R97, puzzle: Brourd's mod of Exclusion 4) | 85.3 | 19.4 |  |  |  | 
UAUUAACAAGCUAGAUCCUACAUGAGGAUCACCCAUGUGCUCGUCUUAUAAGGUACUGUGACGAAAGUCACGGUACC [Sensor 3, v1 - 76] (puzzle: Sensor v3, turn-off variant 1) |  |  | 265 | 42.4 | 243 | 
UUGUUGUAUGUAGGAUAUGCAUAUUAUUAUUAUGCAGAAGGACAUGAGGAUCACCCAUGUAUGUUAUUAUUAUAUGUUAUAUGU [Title] (Eterna round: R96, puzzle: Exclusion NG 1) |  |  |  |  |  | 25.6
AAAGACCAAGUGAGGAUAUUAUGGACAAUGGAACAUGAGAAGGCACAUGAGGAUCACCCAUGUGAAUAGGGACG [Eternabot (Original) Solution 22] (Eterna round: R97, puzzle: Brourd's mod of Exclusion 4) | 33.5 | 19.4 |  |  |  | 
GGUGGGCUAGGAUAUGCUUUGGGCAAGCAUUCCUUCGAUAAACUUGAGGAUCACCCAAGUAGAAGGAGCUUGCC [salish99_ex2_r4_026] (Eterna round: R97, puzzle: Exclusion 2) | 11.5 | 10.6 |  |  |  | 
AGUGUGGAGACAGGAUAUGAGAAUAGAUAGAAAUCAGAAGGGUCACAUGAGGAUCACCCAUGUAAAGUCUUGAGGAUGAGUGAU [Prohibition 2 - Jieux - Exclusion NG 1] (Eterna round: R96, puzzle: Exclusion NG 1) | 263 | 88.8 |  |  |  | 63.9
AGUUGGCGAGGAUAUACAUGAGGAUCACCCAUGUGAGAGAAAAAAGUGAGGAAGAAAAGUAGAAGGCGCUGACG [salish99_ex3_r3_040] (puzzle: Exclusion 3) |  |  | 61.2 | 38.5 | 40.1 | 
AAGUACCGUCACGAUAGUGAUGGUACAGCAAGCAUGUAAACAUGAGGAUCACCCAUGUCCUCAAUUGCUCGUCUUAU [Sensor 3 - 70] (puzzle: Sensor v3, turn-off variant 2) |  |  | 725 | 785 | 764 | 
AAAAAACAAGCUUUUUGAAACAUGAGGAUCACCCAUGUCUUAUAAAAUAAAAAUAAAAAUAAAAAUAAAAUAAAAAA [Sensor V2: 80 Random] (Eterna round: R96, puzzle: Sensor v2, turn-off variant) | 36.2 | 37.4 |  |  |  | 67.9
ACAUGACUGCUAGGAUAUAGAUGACAUGAGGAUCACCCAUGUUGUCUCAUGUUUAUGGAAACGGACUAGAAGGAGUAGUAUAUG [Ex NG2 #15] (Eterna round: R96, puzzle: Exclusion NG 2) | 20.6 | 21.3 |  |  |  | 14.5
UGGUGGUAGCAGGAUAUGCUUGUUGUGUAGUUUGCAGAAGGGCUAACAUGAGGAUCACCCAUGUAAGAGGUGUU [JR_E6_Sub054] (puzzle: Exclusion 6) |  |  |  | 339 |  | 
AAUGAUUGACGAGGAUAUUGUGUUAGAUCACGACGAGAAGGCGUCUGUCACAUGAGGAUCACCCAUGUGAGCCUUGUGGAUAGA [Ex NG1 #77] (Eterna round: R96, puzzle: Exclusion NG 1) | 618 | 378 |  |  |  | 399
GCAUGUUAUGUCAGGAUAUACCUAUGGAUACAUAGGUAGAAGGGACAUGAGGAUCACCCAUGUCCUAAUCAUGC [Fiskers BMX 4 - 23] (puzzle: Brourd's mod of Exclusion 4) |  |  |  | 12.5 |  | 
